Source: US20210261648A1 (published 2021)
Substitutions are numbered along the chain they refer to. In names and notes the source's numbering stands.

T1: FcγRIIb extracellular domain with C-terminal His tag (human, UniProt P31994 43-217)
T1 construct: extracellular domain; also called FcgRIIb
T1 sequence (looked up): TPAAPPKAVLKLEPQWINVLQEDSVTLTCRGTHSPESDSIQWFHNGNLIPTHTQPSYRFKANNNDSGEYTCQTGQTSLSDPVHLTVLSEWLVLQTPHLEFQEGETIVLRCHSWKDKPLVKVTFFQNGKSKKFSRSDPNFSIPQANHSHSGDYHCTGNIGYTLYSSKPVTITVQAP

T2: FcγRIIb (human, UniProt P31994 43-217)
T2 construct: extracellular domain; also called FcgRIIb; CD32B
T2 sequence (looked up): T1 sequence (looked up)

T3: FcγRIIa type R (human, UniProt P12318 34-217)
T3 chain: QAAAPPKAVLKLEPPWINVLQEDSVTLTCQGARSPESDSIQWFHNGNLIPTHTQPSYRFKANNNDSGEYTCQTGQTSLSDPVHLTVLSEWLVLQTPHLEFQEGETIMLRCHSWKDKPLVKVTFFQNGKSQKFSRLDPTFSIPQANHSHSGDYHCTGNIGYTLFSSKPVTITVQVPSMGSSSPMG

B1: IL6R-2B261/IL6R-L (antibody, human IgG1, kappa)
heavy: QVQLQESGPGLVKPSETLSLTCAVSGHSISHDHAWSWVRQPPGEGLEWIGFISYSGITNYNPSLQGRVTISRDNSKNTLYLQMNSLRAEDTAVYYCARSLARTTAMDYWGEGTLVTVSSASTKGPSVFPLAPSSKSTSGGTAALGCLVKDYFPEPVTVSWNSGALTSGVHTFPAVLQSSGLYSLSSVVTVPSSSLGTQTYICNVNHKPSNTKVDKKVEPKSCDKTHTCPPCPAPDLLGGDSVFLFPPKPKDTLMISRTPEVTCVVVDVSHEDPEVKFNWYVDGVEVHNAKTKPREEQDNSTYRVVSVLTVLHQDWLNGKEYKCKVSNKALPAPIEKTISKAKGQPREPQVYTLPPSRDELTKNQVSLTCLVKGFYPSDIAVEWESNGQPENNYKTTPPVLDSDGSFFLYSKLTVDKSRWQQGNVFSCSVMHEALHNHYTQESLSLSP
light: not shown
B2: IL6R-BP143/IL6R-L (antibody, human IgG1, kappa)
heavy: B1 heavy with D235E, L236Y, D298Y, K328A
light: not shown
B3: IL6R-BP204/IL6R-L (antibody, human IgG1, kappa)
heavy: B1 heavy with P273G, D298Y, K328A, A332R
light: not shown
B4: IL6R-BP176/IL6R-L (antibody, human IgG1, kappa)
heavy: B1 heavy with D298Y, K328D, A332K
light: not shown
B5: IL6R-BP082/IL6R-L (antibody, human IgG1, kappa)
heavy: B1 heavy with D298Y, A332K
light: not shown
B6: IL6R-BP132/IL6R-L (antibody, human IgG1, kappa)
heavy: B1 heavy with D298Y, K328A, A332K
light: not shown
B7: IL6R-BP086/IL6R-L (antibody, human IgG1, kappa)
heavy: B1 heavy with D235E, D298Y, K328A, A332K
light: not shown
B8: IL6R-BP184/IL6R-L (antibody, human IgG1, kappa)
heavy: B1 heavy with P273G, D298Y, A332K
light: not shown
B9: IL6R-BP083/IL6R-L (antibody, human IgG1, kappa)
heavy: B1 heavy with D235E, A332K
light: not shown
B10: IL6R-BP188/IL6R-L (antibody, human IgG1, kappa)
heavy: B1 heavy with G239D, H270D, P273G, D298Y, A332K
light: not shown
B11: IL6R-BP085/IL6R-L (antibody, human IgG1, kappa)
heavy: B1 heavy with D235E, G239D, D298Y, A332K
light: not shown
B12: IL6R-BP181/IL6R-L (antibody, human IgG1, kappa)
heavy: B1 heavy with P273G, D298Y, K328A, A332K
light: not shown
B13: IL6R-BP191/IL6R-L (antibody, human IgG1, kappa)
heavy: B1 heavy with H270D, P273G, D298Y, K328A, A332K
light: not shown
B14: IL6R-BP193/IL6R-L (antibody, human IgG1, kappa)
heavy: B1 heavy with H270D, P273G, D298Y, A332K
light: not shown
B15: IL6R-BP192/IL6R-L (antibody, human IgG1, kappa)
heavy: B1 heavy with H270D, P273G, A332K
light: not shown
B16: IL6R-BP144/IL6R-L (antibody, human IgG1, kappa)
heavy: B1 heavy with D235E, G239D, D298Y, K328A
light: not shown
B17: IL6R-BP182/IL6R-L (antibody, human IgG1, kappa)
heavy: B1 heavy with P273G, A332K
light: not shown
B18: IL6R-BP129/IL6R-L (antibody, human IgG1, kappa)
heavy: B1 heavy with A332K
light: not shown
B19: IL6R-BP133/IL6R-L (antibody, human IgG1, kappa)
heavy: B1 heavy with L236Y, D298Y, A332K
light: not shown
B20: IL6R-BP205/IL6R-L (antibody, human IgG1, kappa)
heavy: B1 heavy with P273G, A332R
light: not shown
B21: IL6R-BP555/IL6R-L (antibody, human IgG1, kappa)
heavy: B1 heavy with D235E, G239D, V266I, S269A, H270E, P273G, E274D, A332R
light: not shown
notes: Alterations in EU numbering, introduced into IL6R-B3
B22: IL6R-BP435/IL6R-L (antibody, human IgG1, kappa)
heavy: B1 heavy with G239D, H270D, P273G, K328A, A332R, I334T
light: not shown
notes: as for B21
B23: IL6R-BP537/IL6R-L (antibody, human IgG1, kappa)
heavy: B1 heavy with D235E, G239D, V266I, S269G, H270E, P273G, D298Y, A332R
light: not shown
notes: as for B21
B24: IL6R-BP506/IL6R-L (antibody, human IgG1, kappa)
heavy: B1 heavy with G239D, V266I, S269A, H270E, P273G, E274P, A332R
light: not shown
notes: as for B21
B25: IL6R-BP507/IL6R-L (antibody, human IgG1, kappa)
heavy: B1 heavy with G239D, V266I, S269A, H270E, P273G, E274P, D298Y, A332R
light: not shown
notes: as for B21
B26: IL6R-BP535/IL6R-L (antibody, human IgG1, kappa)
heavy: B1 heavy with G239D, V266I, S269G, H270E, P273G, A329G, A332R, P398M
light: not shown
notes: as for B21
B27: IL6R-BP534/IL6R-L (antibody, human IgG1, kappa)
heavy: B1 heavy with G239D, V266I, H270E, P273G, A332R, P398L
light: not shown
notes: as for B21
B28: IL6R-BP531/IL6R-L (antibody, human IgG1, kappa)
heavy: B1 heavy with G239D, V266I, S269G, H270E, P273G, A332R, P398M
light: not shown
notes: as for B21
B29: IL6R-BP426/IL6R-L (antibody, human IgG1, kappa)
heavy: B1 heavy with G239D, S269A, H270E, E271D, P273G, D298Y, A332R
light: not shown
notes: as for B21
B30: IL6R-BP552/IL6R-L (antibody, human IgG1, kappa)
heavy: B1 heavy with G239D, V266I, S269A, H270E, P273G, E274D, A332R
light: not shown
notes: as for B21
B31: IL6R-BP532/IL6R-L (antibody, human IgG1, kappa)
heavy: B1 heavy with G239D, V266I, H270E, P273G, A332R, P398M
light: not shown
notes: as for B21
B32: IL6R-BP490/IL6R-L (antibody, human IgG1, kappa)
heavy: B1 heavy with D235E, G239D, V266I, S269A, H270E, P273G, D298Y, A332R
light: not shown
notes: as for B21
B33: IL6R-BP553/IL6R-L (antibody, human IgG1, kappa)
heavy: B1 heavy with G239D, V266I, S269A, H270E, P273G, E274D, D298Y, A332R
light: not shown
notes: as for B21
B34: IL6R-BP557/IL6R-L (antibody, human IgG1, kappa)
heavy: B1 heavy with D235E, G239D, S269G, H270D, P273G, A332R
light: not shown
notes: as for B21
B35: IL6R-BP480/IL6R-L (antibody, human IgG1, kappa)
heavy: B1 heavy with G239D, V268L, H270E, E271D, P273G, D298Y
light: not shown
notes: as for B21
B36: IL6R-BP253/IL6R-L (antibody, human IgG1, kappa)
heavy: B1 heavy with D235E, D240P, S269E, D298Y, L330F
light: not shown
notes: S267E/L328F (EU numbering) in IL6R-B3; comparative control
B37: IL6R-BP264/IL6R-L (antibody, human IgG1, kappa)
heavy: B1 heavy with G239D, H270E, P273G, A332R
light: not shown
notes: E233D/G237D/P238D/H268E/P271G/Y296D/A330R (EU numbering) in IL6R-B3
B38: IL6R-BP428/IL6R-L (antibody, human IgG1, kappa)
heavy: B1 heavy with G239D, S269G, H270E, P273G, D298Y, A332R
light: not shown
notes: as for B21

Each binder was assayed against T4, FcγRIa extracellular domain with C-terminal His tag (human, UniProt P12314 16-292) (assay: SPR, captured antibody, FcgR analyte).
T4 construct: also called FcgRIa
T4 sequence (P12314 16-292): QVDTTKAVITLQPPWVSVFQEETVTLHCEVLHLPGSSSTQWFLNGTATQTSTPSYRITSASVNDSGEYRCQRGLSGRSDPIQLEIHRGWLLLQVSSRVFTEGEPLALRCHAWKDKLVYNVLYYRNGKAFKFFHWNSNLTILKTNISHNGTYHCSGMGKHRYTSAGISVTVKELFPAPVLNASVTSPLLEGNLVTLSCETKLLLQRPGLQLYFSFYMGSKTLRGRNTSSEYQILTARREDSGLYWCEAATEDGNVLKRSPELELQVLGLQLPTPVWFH
Experimental: (§1) Relative binding activities were calculated for the results of analyzing interactions with the respective FcγRs according to the following method.

Binder | relative binding activity
B1 | 100 relative (IL6R-BF648/IL6R-L = 100)
B2 | 86 relative (IL6R-BF648/IL6R-L = 100)
B3 | 110 relative (IL6R-BF648/IL6R-L = 100)
B4 | 102 relative (IL6R-BF648/IL6R-L = 100)
B5 | 74 relative (IL6R-BF648/IL6R-L = 100)
B6 | 91 relative (IL6R-BF648/IL6R-L = 100)
B7 | 72 relative (IL6R-BF648/IL6R-L = 100)
B8 | 96 relative (IL6R-BF648/IL6R-L = 100)
B9 | 50 relative (IL6R-BF648/IL6R-L = 100)
B10 | 74 relative (IL6R-BF648/IL6R-L = 100)
B11 | 19 relative (IL6R-BF648/IL6R-L = 100)
B12 | 108 relative (IL6R-BF648/IL6R-L = 100)
B13 | 125 relative (IL6R-BF648/IL6R-L = 100)
B14 | 113 relative (IL6R-BF648/IL6R-L = 100)
B15 | 109 relative (IL6R-BF648/IL6R-L = 100)
B16 | 64 relative (IL6R-BF648/IL6R-L = 100)
B17 | 95 relative (IL6R-BF648/IL6R-L = 100)
B18 | 68 relative (IL6R-BF648/IL6R-L = 100)
B19 | 41 relative (IL6R-BF648/IL6R-L = 100)
B20 | 97 relative (IL6R-BF648/IL6R-L = 100)

What follows are binders tested against T1, FcγRIIb extracellular domain with … (assay: SPR, captured antibody, FcgR analyte).
Experimental: as §1

Binder | relative binding activity
B1 | 115 relative (IL6R-BF648/IL6R-L = 100)
B2 | 133 relative (IL6R-BF648/IL6R-L = 100)
B3 | 165 relative (IL6R-BF648/IL6R-L = 100)
B4 | 147 relative (IL6R-BF648/IL6R-L = 100)
B5 | 136 relative (IL6R-BF648/IL6R-L = 100)
B6 | 150 relative (IL6R-BF648/IL6R-L = 100)
B7 | 137 relative (IL6R-BF648/IL6R-L = 100)
B8 | 171 relative (IL6R-BF648/IL6R-L = 100)
B9 | 122 relative (IL6R-BF648/IL6R-L = 100)
B10 | 179 relative (IL6R-BF648/IL6R-L = 100)
B11 | 152 relative (IL6R-BF648/IL6R-L = 100)
B14 | 173 relative (IL6R-BF648/IL6R-L = 100)
B15 | 172 relative (IL6R-BF648/IL6R-L = 100)
B16 | 121 relative (IL6R-BF648/IL6R-L = 100)
B17 | 173 relative (IL6R-BF648/IL6R-L = 100)
B18 | 138 relative (IL6R-BF648/IL6R-L = 100)
B19 | 137 relative (IL6R-BF648/IL6R-L = 100)
B20 | 167 relative (IL6R-BF648/IL6R-L = 100)

The binders below were run against T5, FcγRIa (human, UniProt P12314 16-292) (assay: SPR (Biacore), captured antibody, soluble FcγR).
T5 construct: Whole entry named; also called FcgRIa; CD64A
T5 sequence (P12314 16-292): as above

Binder | Kd
B21 | 9.4 nM
B22 | 1 nM
B23 | 29 nM
B24 | 3.1 nM
B25 | 2.6 nM
B26 | 11 nM
B27 | 9.3 nM
B28 | 9.4 nM
B29 | 1 nM
B30 | 3.2 nM
B31 | 12 nM
B32 | 4.5 nM
B33 | 3.4 nM

These binders were tested against T2, FcγRIIb (assay: SPR (Biacore), captured antibody, soluble FcγR).

Binder | Kd
B21 | 4.1 nM
B23 | 6.9 nM
B24 | 3.4 nM
B25 | 2.9 nM
B26 | 4 nM
B27 | 3 nM
B34 | 20 nM
B28 | 3.8 nM
B30 | 2.6 nM
B31 | 3.2 nM
B32 | 2.4 nM
B33 | 3.1 nM
B35 | 200 nM

Biological target: T3, FcγRIIa type R
Experiment: SPR (Biacore), captured antibody, soluble FcγR

Binder | Kd
B21 | 160 nM
B23 | 270 nM
B24 | 120 nM
B25 | 100 nM
B26 | 92 nM
B27 | 91 nM
B34 | 850 nM
B36 | 2.1 nM
B37 | 350 nM
B28 | 120 nM
B30 | 97 nM
B31 | 94 nM
B32 | 110 nM
B33 | 86 nM
B38 | 390 nM
B35 | 6300 nM
